According to patent US20030073218:

Test system: RR-Src peptide

Substance | KM (mM) for protein substrate RR-Src, ATP saturated | KM (mM) for protein substrate RR-Src, N^6-(cyclopentyl)ATP saturated
GST-XD4(V323A, I338A) | 3.1 mM | 2.1 mM
GST-XD4 (glutathione S-transferase fusion of the XD4 fragment of v-Src, wild-type catalytic domain) | 2.6 mM | 
